Laboratory results published in IntAct's records for PubMed 12193598.

B1: Palmitoyltransferase ERF2 (Saccharomyces cerevisiae), Q06551 (parent)
chain: MALVSRRSTRSESTSITKEEHTGEGSLTKLFFRWLVTLEGDQDINDGKGYISLPNVSNYIFFLGGRFRTVKGAKPLWLGVLLAIVCPMVLFSIFEAHKLWHTQNGYKVLVIFFYYFWVITLASFIRTATSDPGVLPRNIHLSQLRNNYQIPQEYYNLITLPTHSSISKDITIKYCPSCRIWRPPRSSHCSTCNVCVMVHDHHCIWVNNCIGKRNYRFFLIFLLGAILSSVILLTNCAIHIARESGGPRDCPVAILLLCYAGLTLWYPAILFTYHIFMAGNQQTTREFLKGIGSKKNPVFHRVVKEENIYNKGSFLKNMGHLMLEPRGPSFVSARKPHEAGDWRFMDLSPAHSFEKIQKI
partner: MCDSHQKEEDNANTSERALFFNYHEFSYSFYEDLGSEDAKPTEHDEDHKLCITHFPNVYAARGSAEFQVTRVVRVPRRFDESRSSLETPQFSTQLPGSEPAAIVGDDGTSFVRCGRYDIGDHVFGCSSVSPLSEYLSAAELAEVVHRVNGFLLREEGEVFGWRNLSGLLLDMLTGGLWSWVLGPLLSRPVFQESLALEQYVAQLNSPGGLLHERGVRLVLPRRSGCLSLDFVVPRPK

Variants of: B1
Details: with erfd_yeast SHR5, P41912

| Variant | effect of a mutation on the interaction |
| --- | --- |
| H201A | with no effect |
| C189S | disrupting interaction strength |
